Values quoted from earlier work, collected in paper PMC6438182.

Target: GATAD2A coiled-coil (Homo sapiens) (UniProt Q86YP4)
Sequence of UniProt Q86YP4 (Q86YP4 137-178): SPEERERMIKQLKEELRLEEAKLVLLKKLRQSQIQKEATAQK

Kd: 42 nM
Substance: MBD2 coiled-coil (from UniProt Q9UBB5)
